Bridge positions count the residues as written; N and C are the ends. Square brackets hold non-standard residues; d marks the D form. Nle = CCCC[C@H](N)C(=O)O; Dab = NCC[C@H](N)C(=O)O; Dap = NC[C@H](N)C(=O)O
Tests used:
[1] = molecular target: human melanocortin-4 receptor (human) (UniProt P32245); assay: [I125]-NDP-α-MSH competition, hMC4r HEK-293 membranes
[2] = molecular target: human melanocortin-1 receptor (human) (UniProt Q01726); assay: cell-based or functional assay
[3] = molecular target: human melanocortin-1 receptor (human) (UniProt Q01726); assay: [I125]-NDP-α-MSH competition, hMC1r HEK-293 membranes

Chain of human melanocortin-4 receptor (human) (P32245 whole entry): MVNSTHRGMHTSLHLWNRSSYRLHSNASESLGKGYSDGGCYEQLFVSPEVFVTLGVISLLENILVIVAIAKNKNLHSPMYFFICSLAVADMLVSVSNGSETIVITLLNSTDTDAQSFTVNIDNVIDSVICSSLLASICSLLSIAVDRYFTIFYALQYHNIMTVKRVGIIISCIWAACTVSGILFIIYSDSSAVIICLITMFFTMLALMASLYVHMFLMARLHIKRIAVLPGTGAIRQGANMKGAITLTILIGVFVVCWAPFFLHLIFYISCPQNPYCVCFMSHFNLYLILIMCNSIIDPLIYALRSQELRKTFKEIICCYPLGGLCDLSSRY
Chain of human melanocortin-1 receptor (human) (Q01726 whole entry): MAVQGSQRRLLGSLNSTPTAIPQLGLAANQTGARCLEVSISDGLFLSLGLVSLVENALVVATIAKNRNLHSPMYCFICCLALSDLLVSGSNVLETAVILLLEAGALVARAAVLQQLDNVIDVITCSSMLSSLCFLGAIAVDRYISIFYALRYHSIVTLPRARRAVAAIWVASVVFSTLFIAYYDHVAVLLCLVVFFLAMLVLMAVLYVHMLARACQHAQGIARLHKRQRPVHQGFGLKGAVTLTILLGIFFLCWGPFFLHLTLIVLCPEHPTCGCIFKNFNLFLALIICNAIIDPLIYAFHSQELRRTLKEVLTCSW

Binder | Ki [1] | MC-1 EC50 (average; cAMP HBL) [2] | MC-1 Emax (average; cAMP HBL) [2] | Ki [3]
Ac-[Nle]DH[dF]R[Dap]W-NH2 (lactam 2-6; SMILES CCCC[C@H](NC(C)=O)C(=O)N[C@H]1CC(=O)NC[C@@H](C(=O)N[C@@H](Cc2c[nH]c3ccccc23)C(N)=O)NC(=O)[C@H](CCCNC(=N)N)NC(=O)[C@@H](Cc2ccccc2)NC(=O)[C@H](Cc2c[nH]cn2)NC1=O) [Ac-Nle-cyclo(Asp-His-D-Phe-Arg-Dap)-Trp-NH2] | 1320 nM | 0.195 nM | 88% | 2 nM
Ac-[Nle]EH[dF]R[Dab]K-NH2 (lactam 2-6; SMILES CCCC[C@H](NC(C)=O)C(=O)N[C@H]1CCC(=O)NCC[C@@H](C(=O)N[C@@H](CCCCN)C(N)=O)NC(=O)[C@H](CCCNC(=N)N)NC(=O)[C@@H](Cc2ccccc2)NC(=O)[C@H](Cc2c[nH]cn2)NC1=O) [Ac-Nle-cyclo(Glu-His-D-Phe-Arg-Dab)-Lys-NH2] | 7380 nM | 0.175 nM | 91% | 2 nM
Ac-[Nle]EH[dF]A[Dab]W-NH2 (lactam 2-6; SMILES CCCC[C@H](NC(C)=O)C(=O)N[C@H]1CCC(=O)NCC[C@@H](C(=O)N[C@@H](Cc2c[nH]c3ccccc23)C(N)=O)NC(=O)[C@H](C)NC(=O)[C@@H](Cc2ccccc2)NC(=O)[C@H](Cc2c[nH]cn2)NC1=O) [Ac-Nle-cyclo(Glu-His-D-Phe-Ala-Dab)-Trp-NH2] | 10000 nM | 0.115 nM | 72% | 0.8 nM
Ac-[Nle]EH[dF]R[Dab]A-NH2 (lactam 2-6) [Ac-Nle-cyclo(Glu-His-D-Phe-Arg-Dab)-Ala-NH2] | 7480 nM | 0.08 nM | 97% | 2 nM

The remaining binders from weak to strong by Ki [1], led by results:

Ki [1] | MC-1 EC50 (average; cAMP HBL) [2] | MC-1 Emax (average; cAMP HBL) [2] | Ki [3] | Binder
10000 nM | 4 nM | 59% | 9 nM | Ac-[Nle]EH[dF]G[Dab]W-NH2 (lactam 2-6; SMILES CCCC[C@H](NC(C)=O)C(=O)N[C@H]1CCC(=O)NCC[C@@H](C(=O)N[C@@H](Cc2c[nH]c3ccccc23)C(N)=O)NC(=O)CNC(=O)[C@@H](Cc2ccccc2)NC(=O)[C@H](Cc2c[nH]cn2)NC1=O) [Ac-Nle-cyclo(Glu-His-D-Phe-Gly-Dab)-Trp-NH2]
185 nM | 0.18 nM | 97% | 3 nM | Ac-[Nle]EP[dF]R[Dab]W-NH2 (lactam 2-6; SMILES CCCC[C@H](NC(C)=O)C(=O)N[C@H]1CCC(=O)NCC[C@@H](C(=O)N[C@@H](Cc2c[nH]c3ccccc23)C(N)=O)NC(=O)[C@H](CCCNC(=N)N)NC(=O)[C@@H](Cc2ccccc2)NC(=O)[C@@H]2CCCN2C1=O) [Ac-Nle-cyclo(Glu-Pro-D-Phe-Arg-Dab)-Trp-NH2]

Reference: patent US20220088146A1, “Melanocortin Receptor-Specific Peptide Formulations and Methods for Gastrointestinal Tract-Specific Delivery” (Palatin Technologies, Inc., priority 2018, published 2022)
